Test results: patent publication US20240116985A1 (published 2024)
Starred links: 1 amine or outer side, 2 acyl side, 3 side chain; linkers in the order of their positions; H or OH if unused. Positions of bridges follow the written chain, without caps; N, C: chain ends. Non-standard residues stand in square brackets, D forms with d. Primed or numbered codes have the meaning given here. PyrS2″ = (S)-3-amino-1-((pent-4-en-1-yloxy)carbonyl)pyrrolidine-3-carboxylic acid (stapling residue), C=CCCCOC(=O)N1CC[C@@](N[*:1])(C(=O)[*:2])C1; B5(23) = 2-amino-2-(pent-4-en-1-yl)hept-6-enoic acid (2,2-bis(4-pentenyl)glycine), stitching residue, C=CCCCC(CCCC=C)(N[*:1])C(=O)[*:2]; B5(4) = 2,2-bis(4-pentenyl)glycine = 2-amino-2-(pent-4-en-1-yl)hept-6-enoic acid (stitching residue), C=CCCCC(CCCC=C)(N[*:1])C(=O)[*:2]; B5(3) = 2,2-bis(4-pentenyl)glycine (stitching residue), C=CCCCC(CCCC=C)(N[*:1])C(=O)[*:2]; Phe(3-COOH) = N[C@@H](Cc1cccc(C(=O)O)c1)C(=O)O; Phe(3-F) = N[C@@H](Cc1cccc(F)c1)C(=O)O; Bta = N[C@@H](Cc1csc2ccccc12)C(=O)O; αAllylPro = C=CC[C@@]1(C(=O)O)CCCN1; tBuAla = CC(C)(C)C[C@H](N)C(=O)O; 3Thi = N[C@@H](Cc1ccsc1)C(=O)O; S8 = C=CCCCCCC[C@](C)(N)C(=O)O

T1: full-length beta-Catenin (Uniprot ID P35222) (Homo sapiens (Human), UniProt P35222 1-781)
T1 construct: The assay protocols call it full-length; also called B-Catenin; bCat
T1 sequence: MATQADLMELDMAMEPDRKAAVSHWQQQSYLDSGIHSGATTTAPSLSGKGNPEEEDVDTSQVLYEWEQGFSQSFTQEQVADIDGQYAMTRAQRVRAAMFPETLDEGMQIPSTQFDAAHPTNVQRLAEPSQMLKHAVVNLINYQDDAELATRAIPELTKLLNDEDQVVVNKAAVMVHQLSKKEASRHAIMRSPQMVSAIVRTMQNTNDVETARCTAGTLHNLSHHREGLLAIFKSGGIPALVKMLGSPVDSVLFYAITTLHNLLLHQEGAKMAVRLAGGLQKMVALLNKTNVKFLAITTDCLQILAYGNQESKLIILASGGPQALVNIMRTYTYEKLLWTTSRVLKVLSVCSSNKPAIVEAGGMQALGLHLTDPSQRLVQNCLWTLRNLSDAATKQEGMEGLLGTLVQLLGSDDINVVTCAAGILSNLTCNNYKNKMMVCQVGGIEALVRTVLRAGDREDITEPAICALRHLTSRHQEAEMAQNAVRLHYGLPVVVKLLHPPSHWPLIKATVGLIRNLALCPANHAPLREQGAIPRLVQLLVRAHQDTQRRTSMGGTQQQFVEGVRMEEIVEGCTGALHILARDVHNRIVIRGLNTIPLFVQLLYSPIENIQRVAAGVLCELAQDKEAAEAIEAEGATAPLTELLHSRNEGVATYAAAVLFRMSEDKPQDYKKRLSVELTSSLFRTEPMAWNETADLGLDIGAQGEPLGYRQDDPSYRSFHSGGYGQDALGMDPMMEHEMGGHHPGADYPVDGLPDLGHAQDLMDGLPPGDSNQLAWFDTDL

T2: B-cat-Halo (Homo sapiens (Human), UniProt P35222 1-781)
T2 sequence: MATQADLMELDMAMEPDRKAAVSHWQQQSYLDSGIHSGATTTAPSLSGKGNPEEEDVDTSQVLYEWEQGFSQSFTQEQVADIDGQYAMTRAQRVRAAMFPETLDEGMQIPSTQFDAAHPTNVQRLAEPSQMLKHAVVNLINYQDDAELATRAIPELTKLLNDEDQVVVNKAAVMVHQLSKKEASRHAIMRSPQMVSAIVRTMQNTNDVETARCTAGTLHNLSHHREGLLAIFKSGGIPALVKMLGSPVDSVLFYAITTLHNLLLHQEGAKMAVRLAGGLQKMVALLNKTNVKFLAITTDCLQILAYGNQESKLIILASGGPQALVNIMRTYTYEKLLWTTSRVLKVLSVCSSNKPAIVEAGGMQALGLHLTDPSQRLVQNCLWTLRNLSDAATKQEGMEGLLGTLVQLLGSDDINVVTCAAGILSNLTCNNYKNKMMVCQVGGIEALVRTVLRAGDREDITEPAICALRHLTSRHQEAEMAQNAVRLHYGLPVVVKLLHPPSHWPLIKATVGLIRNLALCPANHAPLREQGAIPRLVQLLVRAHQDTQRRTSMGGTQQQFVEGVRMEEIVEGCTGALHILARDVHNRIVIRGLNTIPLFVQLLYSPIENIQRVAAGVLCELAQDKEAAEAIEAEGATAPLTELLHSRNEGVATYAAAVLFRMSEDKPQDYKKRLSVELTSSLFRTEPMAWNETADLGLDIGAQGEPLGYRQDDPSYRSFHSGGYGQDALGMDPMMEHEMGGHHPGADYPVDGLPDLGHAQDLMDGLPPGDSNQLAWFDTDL

T3: B-cat-Halo (beta-catenin HaloTag NanoBRET construct expressed in HEK293 cells) (UniProt P35222 1-781)
T3 sequence (looked up): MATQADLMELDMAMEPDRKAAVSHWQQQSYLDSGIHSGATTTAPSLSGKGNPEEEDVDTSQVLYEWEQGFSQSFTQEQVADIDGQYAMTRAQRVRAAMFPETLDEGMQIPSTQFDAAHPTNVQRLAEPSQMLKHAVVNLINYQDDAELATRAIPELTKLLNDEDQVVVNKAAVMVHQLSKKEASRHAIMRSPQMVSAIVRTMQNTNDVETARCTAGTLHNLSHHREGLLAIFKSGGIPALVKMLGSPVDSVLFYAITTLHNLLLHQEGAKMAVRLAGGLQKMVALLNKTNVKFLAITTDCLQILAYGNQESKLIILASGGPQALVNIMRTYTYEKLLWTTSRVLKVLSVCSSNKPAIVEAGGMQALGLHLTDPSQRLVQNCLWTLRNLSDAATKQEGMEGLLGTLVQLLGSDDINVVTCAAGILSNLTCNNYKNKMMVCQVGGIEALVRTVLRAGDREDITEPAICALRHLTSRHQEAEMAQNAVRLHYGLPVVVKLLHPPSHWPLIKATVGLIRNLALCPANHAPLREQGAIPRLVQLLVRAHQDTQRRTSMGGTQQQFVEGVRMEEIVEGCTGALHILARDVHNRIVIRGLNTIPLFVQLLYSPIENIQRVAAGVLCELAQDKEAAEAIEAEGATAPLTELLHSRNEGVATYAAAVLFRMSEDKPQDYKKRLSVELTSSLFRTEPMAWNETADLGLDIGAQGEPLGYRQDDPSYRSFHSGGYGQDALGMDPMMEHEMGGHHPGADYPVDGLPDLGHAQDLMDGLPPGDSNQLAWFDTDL

T4: full-length beta-Catenin (Uniprot ID P35222) (Homo sapiens (Human), UniProt P35222 2-781)
T4 construct: full-length; also called bCat; B-Catenin
T4 sequence: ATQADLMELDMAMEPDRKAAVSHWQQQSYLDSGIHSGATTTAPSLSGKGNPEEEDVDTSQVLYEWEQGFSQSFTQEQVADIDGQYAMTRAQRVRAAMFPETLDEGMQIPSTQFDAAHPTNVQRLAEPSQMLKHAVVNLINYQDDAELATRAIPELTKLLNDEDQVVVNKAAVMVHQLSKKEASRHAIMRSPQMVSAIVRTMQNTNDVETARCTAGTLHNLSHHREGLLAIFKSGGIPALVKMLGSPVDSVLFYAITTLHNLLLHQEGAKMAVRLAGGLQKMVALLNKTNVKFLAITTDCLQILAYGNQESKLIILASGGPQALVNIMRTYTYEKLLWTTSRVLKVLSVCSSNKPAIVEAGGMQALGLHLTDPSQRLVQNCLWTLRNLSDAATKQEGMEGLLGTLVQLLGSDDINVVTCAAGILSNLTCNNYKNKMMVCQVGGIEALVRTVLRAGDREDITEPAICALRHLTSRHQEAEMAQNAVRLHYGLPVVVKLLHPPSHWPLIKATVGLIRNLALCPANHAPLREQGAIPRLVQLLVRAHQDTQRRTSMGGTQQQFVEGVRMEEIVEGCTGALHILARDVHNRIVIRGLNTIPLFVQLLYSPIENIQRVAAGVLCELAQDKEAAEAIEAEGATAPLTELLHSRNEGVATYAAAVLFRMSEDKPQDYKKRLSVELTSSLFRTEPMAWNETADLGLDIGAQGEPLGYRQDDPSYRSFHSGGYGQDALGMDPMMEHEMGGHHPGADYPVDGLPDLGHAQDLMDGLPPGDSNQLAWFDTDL

B1: I-260 (peptide)
peptide: Ac-[αAllylPro]DA[B5(4)]DDAAFV[S8][Phe(3-F)]WQ-NH2
modifications: staple 1-4, 4-11
notes: Stapled (stitched) peptide; also called Ac-PL3-Asp-Ala-B5-Asp-Asp-Ala-Ala-Phe-Val-S8-3FF-Trp-Gln-NH2
B2: I-285 (peptide)
peptide: XDAXDDAAFVXHWQ
modifications: not fully specified; N-terminal Ac; PL3 at 1; B5 at 4; S8 at 11; C-terminal NH2; staples PL3(1)-B5(4) and B5(4)-S8(11) by olefin metathesis
notes: Stapled (stitched) peptide; also called Ac-PL3-Asp-Ala-B5-Asp-Asp-Ala-Ala-Phe-Val-S8-His-Trp-Gln-NH2
B3: I-286 (peptide)
peptide: XDAXDDAAFAXFWA
modifications: not fully specified; N-terminal Ac; PL3 at 1; B5 at 4; S8 at 11; C-terminal NH2; staples PL3(1)-B5(4) and B5(4)-S8(11) by olefin metathesis
notes: Stapled (stitched) peptide; also called Ac-PL3-Asp-Ala-B5-Asp-Asp-Ala-Ala-Phe-Ala-S8-Phe-Trp-Ala-NH2
B4: I-2046 (peptide)
peptide: Ac-[αAllylPro]D[tBuAla][B5(3)]D[Phe(3-COOH)]AAFL[PyrS2″][3Thi][Bta]NAAA-NH2
modifications: staple 1-4, 4-11
B5: I-262 (peptide)
peptide: XDAXDDAAFVXFWQ
modifications: not fully specified; N-terminal Ac; PL3 at 1; B5 at 4; S8 at 11; 34FF at 12; C-terminal NH2; staples PL3(1)-B5(4) and B5(4)-S8(11) by olefin metathesis
notes: Stapled (stitched) peptide; also called Ac-PL3-Asp-Ala-B5-Asp-Asp-Ala-Ala-Phe-Val-S8-34FF-Trp-Gln-NH2
B6: I-1532 (peptide)
peptide: XDNXDEAAFQXFXQ
modifications: not fully specified; N-terminal Ac; PL3 at 1, B5 at 4, S8 at 11 (staples PL3-B5 and B5-S8 by olefin metathesis); BztA at 13; C-terminal NH2
notes: Stapled peptide composition; Same description as I-1531; separate, later eluting HPLC peak (staple isomer); also called Ac-PL3-Asp-Asn-B5-Asp-Glu-Ala-Ala-Phe-Gln-S8-Phe-BztA-Gln-NH2
B7: I-1553 (peptide)
peptide: Ac-[αAllylPro]DK[B5(23)]DEAAFL[S8]F[Bta]Q-NH2
modifications: staple 1-4, 4-11
notes: Stapled peptide composition; also called Ac-PL3-Asp-Lys-B5-Asp-Glu-Ala-Ala-Phe-Leu-S8-Phe-BztA-Gln-NH2

Experiments:
[1] = molecular target: T1, full-length beta-Catenin (Uniprot ID …); experiment: fluorescence polarization competition; full-length beta-catenin with 5FAM-labelled TCF4 10-53 peptide as competitor
Description: (§1) The plate was incubated protected from light for 60 minutes at 20° C. prior to read. Reads were performed on a CLARIOstar plate reader (BMG Labtech) in duplicate, and data were fitted to a 1:1 binding model with hill slope using an in-house script. All provided concentrations are final concentrations.

[2] = molecular target: T1, full-length beta-Catenin (Uniprot ID …); experiment: AlphaScreen competition; full-length beta-catenin with biotin-labelled TCF4 10-53 peptide as competitor
Description: as §1, with “Equal volume of the titrated peptide was added to the” for “The”, “and” for “was”, “incubated for 15 minutes at 20° C. Then 4 uL of donor and 4 uL acceptor beads at 10 ug/mL were added to the plate, for a 16 uL reaction pool and” for “incubated”

[3] = molecular target: T2, B-cat-Halo; experiment: cell-based or functional assay
[4] = molecular target: T3, B-cat-Halo (beta-catenin HaloTag …); experiment: cell-based or functional assay
[5] = molecular target: T4, full-length beta-Catenin (Uniprot ID …); experiment: fluorescence polarization competition; displaces 5FAM-TCF4(10-53) from full-length beta-catenin
Description: as §1

Binder | EC50 [1] [µM] | EC50 [2] [µM] | NanoBRET Abs IC50 [3] [µM] | NanoBRET Abs IC50 [4] [µM] | IC50 [5] [µM]
B1 | 5 | 0.683 | – | – | –
B2 | 5 | 0.246 | – | – | –
B3 | 4.48 | 0.45 | – | – | –
B4 | – | – | 2.9 | – | –
B5 | 5 | 0.967 | – | – | –
B6 | – | – | – | > 20 | 0.049
B7 | – | – | – | > 20 | 0.133
